In patent publication US20230250189A1 (HEIDELBERG PHARMA RESEARCH, published 2023):
Substitutions are numbered along the chain they refer to.

B1: 3F11-var 6 (antibody, human IgG1, kappa, V domains shown)
VH: QVQLVQSGAEVKKPGASVKVSCKASGYTFTYFDINWLRQAPGQGLEWMGGISPGDGNTNYAQKFQGRVTLTIDTSTSTAYMELSSLRSEDTAVYYCARDGNFPYYAMDSWGQGTLVTVSS
VL: DIVMTQSPLSLPVTPGEPASISCRSSQSLVHSNGQTYLHWYLQKPGQSPQLLIYTVSNRFSGVPDRFSGSGSGTDFTLKISRVEAEDVGVYYCSQSTHVPTFGGGTKVEIKR
notes: Expressed from pXC-IgG1zadeltaK and pXC-Kappa vectors
B2: 3F11-var 1 (antibody, human IgG1, kappa, V domains shown)
VH: B1 VH with A61N, Q62E, K63N, Q65K, T74K, Y95F
VL: B1 VL with Q35N, Y41F, Y92F
notes: as for B1
B3: 3F11-var 2 (antibody, human IgG1, kappa, V domains shown)
VH: B1 VH
VL: B1 VL with Q35N, Y41F, Y92F
notes: as for B1
B4: 3F11-var 3 (antibody, human IgG1, kappa, V domains shown)
VH: B1 VH with T58V
VL: B1 VL with Q35N, Y41F, Y92F
notes: as for B1
B5: 3F11-var 4 (antibody, human IgG1, kappa, V domains shown)
VH: B1 VH with G56S, T58V
VL: B1 VL with Q35N, Y41F, Y92F
notes: as for B1
B6: 3F11-var 5 (antibody, human IgG1, kappa, V domains shown)
VH: B1 VH with A61N, Q62E, K63N, Q65K, T74K, Y95F
VL: B1 VL
notes: as for B1
B7: 3F11-var 7 (antibody, human IgG1, kappa, V domains shown)
VH: B1 VH with T58V
VL: B1 VL
notes: as for B1
B8: 3F11-var 8 (antibody, human IgG1, kappa, V domains shown)
VH: B1 VH with G56S, T58V
VL: B1 VL
notes: as for B1
B9: 3F11-var 9 (antibody, human IgG1, kappa, V domains shown)
VH: B1 VH with A61N, Q62E, K63N, Q65K, T74K, Y95F
VL: B1 VL with N33S
notes: as for B1
B10: 3F11-var 10 (antibody, human IgG1, kappa, V domains shown)
VH: B1 VH
VL: B1 VL with N33S
notes: as for B1
B11: 3F11-var 11 (antibody, human IgG1, kappa, V domains shown)
VH: B1 VH with T58V
VL: B1 VL with N33S
notes: as for B1
B12: 3F11-var 12 (antibody, human IgG1, kappa, V domains shown)
VH: B1 VH with G56S, T58V
VL: B1 VL with N33S
notes: as for B1
B13: 3F11-var 13 (antibody, human IgG1, kappa, V domains shown)
VH: B1 VH with A61N, Q62E, K63N, Q65K, T74K, Y95F
VL: B1 VL with N33S, L42Q, F60A, V90T
notes: as for B1
B14: 3F11-var 14 (antibody, human IgG1, kappa, V domains shown)
VH: B1 VH
VL: B1 VL with N33S, L42Q, F60A, V90T
notes: as for B1
B15: 3F11-var 15 (antibody, human IgG1, kappa, V domains shown)
VH: B1 VH with T58V
VL: B1 VL with N33S, L42Q, F60A, V90T
notes: as for B1
B16: 3F11-var 16 (antibody, human IgG1, kappa, V domains shown)
VH: B1 VH with G56S, T58V
VL: B1 VL with N33S, L42Q, F60A, V90T
notes: as for B1

What follows are binders tested against T1, Prostate specific membrane antigen (PSMA) (human, UniProt Q04609 1-750) (assay: flow cytometry on LNCAP cells, FITC anti-human IgG).
T1 construct: whole, on cells; The background says that PSMA is a homodimer when enzymatically active; also called glutamate carboxypeptidase II; GCPII
T1 sequence (Q04609 whole entry): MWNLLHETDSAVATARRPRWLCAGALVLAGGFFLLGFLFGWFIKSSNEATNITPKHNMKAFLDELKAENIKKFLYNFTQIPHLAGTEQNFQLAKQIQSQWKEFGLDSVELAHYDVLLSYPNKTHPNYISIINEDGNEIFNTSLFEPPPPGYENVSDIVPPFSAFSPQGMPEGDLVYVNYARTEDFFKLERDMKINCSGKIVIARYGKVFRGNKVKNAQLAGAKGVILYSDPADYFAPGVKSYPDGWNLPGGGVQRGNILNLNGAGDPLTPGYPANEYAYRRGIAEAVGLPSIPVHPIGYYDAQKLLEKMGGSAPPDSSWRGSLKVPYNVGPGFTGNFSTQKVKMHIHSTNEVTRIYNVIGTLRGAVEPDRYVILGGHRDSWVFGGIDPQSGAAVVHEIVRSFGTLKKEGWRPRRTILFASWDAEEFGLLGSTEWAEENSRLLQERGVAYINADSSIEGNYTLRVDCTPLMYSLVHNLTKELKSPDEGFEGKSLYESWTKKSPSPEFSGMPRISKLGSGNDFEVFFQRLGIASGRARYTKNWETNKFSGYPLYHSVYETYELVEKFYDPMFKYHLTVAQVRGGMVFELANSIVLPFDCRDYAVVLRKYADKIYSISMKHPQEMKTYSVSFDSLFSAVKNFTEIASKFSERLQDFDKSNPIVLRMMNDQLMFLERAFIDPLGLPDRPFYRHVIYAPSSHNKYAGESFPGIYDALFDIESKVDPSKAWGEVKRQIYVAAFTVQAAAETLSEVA
Description: (§1) Pre-confluent LNCAP cells at 80-90% confluence were washed and detached from the plates with trypsin prior to 1-hour incubation at 37° C., 5% CO₂ in the flasks to restore cell surface proteins. Cells were washed and adjusted to 1×10₆ cells/ml in staining media (RPMI-1640, 25 mM HEPES, 3% h.i. FBS and 0.02% sodium azide). Various concentrations of the monoclonal antibody samples (murine wt and 16 humanized variants) ranging from 50 to 0.0032 μg/ml were prepared in staining media and incubated with the cells in pre-cooled 96-well plates for 30 min. on ice to allow antibody binding to the LNCAP cell surface. Subsequently, cells were washed at 4° C. with PBS to remove free antibody, and bound antibody was labelled with FITC goat anti-human IgG H&L preabsorbed (Abcam) secondary antibody for 30 min. on ice. Finally, cells were washed, fixed and FITC fluorescence associated to the antibody bound to the cells was measured by flow cytometry (GUAVA 8HT Cytometer). Data was analyzed using Incyte GuavaSoft 2.7 software (Merck-Millipore). The obtained dose-response data (plotted as log-transformed dose vs. response) typically produced sigmoidal curves with variable slope which were fitted to a 4-parameter logistic dose-response equation using GraphPad Prism software. The EC₅₀ dose, defined as the concentration of antibody that provides half of maximal target cell binding, was used to compare the bioactivity of different antibody variants. Data points represent the average of duplicate wells and standard error of the mean (SEM).

| Binder | EC50 |
| --- | --- |
| B1 | 0.219 µg/mL |
| B2 | 0.29 µg/mL |
| B3 | 0.273 µg/mL |
| B4 | 0.264 µg/mL |
| B5 | 0.373 µg/mL |
| B6 | 0.304 µg/mL |
| B7 | 0.178 µg/mL |
| B8 | 0.204 µg/mL |
| B9 | 0.281 µg/mL |
| B10 | 0.284 µg/mL |
| B11 | 0.339 µg/mL |
| B12 | 0.329 µg/mL |
| B13 | 0.25 µg/mL |
| B14 | 0.272 µg/mL |
| B15 | 0.244 µg/mL |
| B16 | 0.248 µg/mL |

Target: T1, Prostate specific membrane antigen …
Test: flow cytometry on LNCAP cells, FITC anti-human IgG
Remark: another data set of the same source
Description: as §1

| Binder | EC50 |
| --- | --- |
| B1 | 0.219 µg/mL |
| B2 | 0.29 µg/mL |
| B3 | 0.273 µg/mL |
| B4 | 0.264 µg/mL |
| B5 | 0.373 µg/mL |
| B6 | 0.304 µg/mL |
| B7 | 0.178 µg/mL |
| B8 | 0.204 µg/mL |
| B9 | 0.281 µg/mL |
| B10 | 0.284 µg/mL |
| B11 | 0.339 µg/mL |
| B12 | 0.329 µg/mL |
| B13 | 0.25 µg/mL |
| B14 | 0.272 µg/mL |
| B15 | 0.244 µg/mL |
| B16 | 0.248 µg/mL |
